± gives the uncertainty stated by the source.
B1: Serine/threonine-protein kinase A-Raf, residues 21 to 89; numbered along this chain, P10398 (parent)
chain: VKVYLPNKQRTVVTVRDGMSVYDSLDKALKVRGLNQDCCVVYRLIKGRKTVTAWDTAIAPLDGEELIVE

Variants of: B1
Test: abundance fitness (aPCA) (normalised: wild type 0, dead -1); higher = more abundant; growth selection in yeast, the domain comes from the species named
Details: Homo sapiens

Variant | abundance fitness
VKVYLPNKQRTVVTVRDGMSVYDSLDKALKVRGLNQDCCVVYRLIKERKTVTAWDTAIAPLDGEELIVE [G47E] | -0.573 ± 0.083
VPVYLPNKQRTVVTVRDGMSVYDSLDKALKVRGLNQDCCVVYRLIKGRKTVTAWDTAIAPLDGEELIVE [K2P] | -0.528 ± 0.12
VKVYLPNKQRTVVTVRDGMSVYDSLDKALKVRGLNQDCCVVYRLIKGRKTVTAWDTAIAPLDMEELIVE [G63M] | -0.269 ± 0.1
VKVYLPNKQRTVVTVRDGMSVYDSLDKALKVRGLNQDCCVVYRLIKGRKTVTAWKTAIAPLDGEELIVE [D55K] | -0.347 ± 0.051
VKVYLPNKQRTVVTVRDGMSVYDSGDKALKVRGLNQDCCVVYRLIKGRKTVTAWDTAIAPLDGEELIVE [L25G] | -0.697 ± 0.1
VKVYLPNKQRTVVTVCDGMSVYDSLDKALKVRGLNQDCCVVYRLIKGRKTVTAWDTAIAPLDGEELIVE [R16C] | -0.028 ± 0.1
VKTYLPNKQRTVVTVRDGMSVYDSLDKALKVRGLNQDCCVVYRLIKGRKTVTAWDTAIAPLDGEELIVE [V3T] | -0.985 ± 0.15
VKVYLPNKQRTVVTVRDGMSVYDSLDKALKVRGLNQDCCVVYPLIKGRKTVTAWDTAIAPLDGEELIVE [R43P] | -0.822 ± 0.33
VKVYLPNKQRTVVTVRDGMSVYDSLDKALKVRGLNQDCCVVYRLIKQRKTVTAWDTAIAPLDGEELIVE [G47Q] | -0.359 ± 0.14
VKVYLPNKQRTRVTVRDGMSVYDSLDKALKVRGLNQDCCVVYRLIKGRKTVTAWDTAIAPLDGEELIVE [V12R] | -0.096 ± 0.04
VKVYLPNKQRTVVTVRDGMSVYDSLDKALKVRGLNQDCCVVYRLIKGRKTVHAWDTAIAPLDGEELIVE [T52H] | -0.625 ± 0.21
VKVYLPNKQRTVVTVRDGMSVYDSLDKALKVRGLNQDCCVVYRLIKGRKTVTAWDTAIAHLDGEELIVE [P60H] | -0.06 ± 0.18
VKVYLPNQQRTVVTVRDGMSVYDSLDKALKVRGLNQDCCVVYRLIKGRKTVTAWDTAIAPLDGEELIVE [K8Q] | -0.031 ± 0.054
VKVYLPNKQRTVVTVRDGMSVYDSLDKALKVRGLNQDCCVVYRLIKGRKTVTAWDPAIAPLDGEELIVE [T56P] | -0.614 ± 0.11
VKVYLPNKQRTVVTVRDGMSVYDSLDKALKVRGLNQDCCVVYRLIKGCKTVTAWDTAIAPLDGEELIVE [R48C] | -0.366 ± 0.15
VKVYLPNKQRTVVTVRDGMSVYDSLDKALKVRGLNQDCCVVYRLIKGRKTVTAWDTAIAPLDGFELIVE [E64F] | -0.867 ± 0.28
VKVYLPNKQRTVVTVRDGMSVYDSLDKALKVRGLNQDCCVVNRLIKGRKTVTAWDTAIAPLDGEELIVE [Y42N] | -0.159 ± 0.25
VKVYLPNKQRTVVEVRDGMSVYDSLDKALKVRGLNQDCCVVYRLIKGRKTVTAWDTAIAPLDGEELIVE [T14E] | -0.138 ± 0.055
VKVYLPNKQRTVVTVRDGMSVYDSVDKALKVRGLNQDCCVVYRLIKGRKTVTAWDTAIAPLDGEELIVE [L25V] | -0.54 ± 0.052
VKVYLPNKQRTVVTVRDGMSVYGSLDKALKVRGLNQDCCVVYRLIKGRKTVTAWDTAIAPLDGEELIVE [D23G] | -0.388 ± 0.038
LKVYLPNKQRTVVTVRDGMSVYDSLDKALKVRGLNQDCCVVYRLIKGRKTVTAWDTAIAPLDGEELIVE [V1L] | -0.076 ± 0.13
VKVYLPNKQRTVVTVRDGMSVRDSLDKALKVRGLNQDCCVVYRLIKGRKTVTAWDTAIAPLDGEELIVE [Y22R] | 0.11 ± 0.05
VKVYLPNKQRTVVTVRDGMSVYDSLDKATKVRGLNQDCCVVYRLIKGRKTVTAWDTAIAPLDGEELIVE [L29T] | -0.845 ± 0.2
VKVYLPNKQRTVVTVRDGMSVYDSLDKALKKRGLNQDCCVVYRLIKGRKTVTAWDTAIAPLDGEELIVE [V31K] | -0.042 ± 0.079
VKVYLPNKQRTVVTVRDGMSVYDSLDKALKVRGLNQDCCVFYRLIKGRKTVTAWDTAIAPLDGEELIVE [V41F] | -0.846 ± 0.24
VKVYLPNLQRTVVTVRDGMSVYDSLDKALKVRGLNQDCCVVYRLIKGRKTVTAWDTAIAPLDGEELIVE [K8L] | -0.363 ± 0.037

Variant | abundance fitness
VKVYLPNKQRTVVTVRDGMSVYDSLDKALFVRGLNQDCCVVYRLIKGRKTVTAWDTAIAPLDGEELIVE [K30F] | -0.574 ± 0.12
VWVYLPNKQRTVVTVRDGMSVYDSLDKALKVRGLNQDCCVVYRLIKGRKTVTAWDTAIAPLDGEELIVE [K2W] | -0.314 ± 0.15
VKVYLPNKQRTVVTVRDGMSVYDSLDKALKVRGLNQDCCVVYRLIKGKKTVTAWDTAIAPLDGEELIVE [R48K] | 0.097 ± 0.085
VKVYLPNKQRTVVTVRDGMSVYDSLDKALKVRGLNQDCCVVYRLIKGRKTVGAWDTAIAPLDGEELIVE [T52G] | -0.956 ± 0.11
VKMYLPNKQRTVVTVRDGMSVYDSLDKALKVRGLNQDCCVVYRLIKGRKTVTAWDTAIAPLDGEELIVE [V3M] | -0.814 ± 0.18
VKVYLPNKVRTVVTVRDGMSVYDSLDKALKVRGLNQDCCVVYRLIKGRKTVTAWDTAIAPLDGEELIVE [Q9V] | -0.035 ± 0.046
VKVYLPNKQRTVVTVRDGMSVYDSLDKALKVRGLNDDCCVVYRLIKGRKTVTAWDTAIAPLDGEELIVE [Q36D] | -0.582 ± 0.31
VKVYLPNKQRTVVTVRDGMSVYDSLPKALKVRGLNQDCCVVYRLIKGRKTVTAWDTAIAPLDGEELIVE [D26P] | -0.977 ± 0.22
VKVYLPNKQRTVVTVRDGMSVYDSLDKALKVRGLNQDCCVVYRLIKGPKTVTAWDTAIAPLDGEELIVE [R48P] | -0.474 ± 0.16
VKVYLPNKQQTVVTVRDGMSVYDSLDKALKVRGLNQDCCVVYRLIKGRKTVTAWDTAIAPLDGEELIVE [R10Q] | 0.036 ± 0.076
VKVYLPNKQRTVVTVRDGMSVYDSLDKALKVRGLNQDCCVRYRLIKGRKTVTAWDTAIAPLDGEELIVE [V41R] | -0.559 ± 0.099
VKVYLPNIQRTVVTVRDGMSVYDSLDKALKVRGLNQDCCVVYRLIKGRKTVTAWDTAIAPLDGEELIVE [K8I] | -0.683 ± 0.16
VKVYLPNKQRTVVTVRDGMSVYDSLDKALKVRGLNQDCCFVYRLIKGRKTVTAWDTAIAPLDGEELIVE [V40F] | -0.828 ± 0.14
VKVYLPNKQRTVVTVRDGMSVYDSLDKALKVRGLNQDCCVVYRLINGRKTVTAWDTAIAPLDGEELIVE [K46N] | 0.228 ± 0.17
VKVYLPNKQRTVVTPRDGMSVYDSLDKALKVRGLNQDCCVVYRLIKGRKTVTAWDTAIAPLDGEELIVE [V15P] | -0.257 ± 0.072
VKVYLPNKQRTVVTFRDGMSVYDSLDKALKVRGLNQDCCVVYRLIKGRKTVTAWDTAIAPLDGEELIVE [V15F] | -0.001 ± 0.075
VKVYLPNKQNTVVTVRDGMSVYDSLDKALKVRGLNQDCCVVYRLIKGRKTVTAWDTAIAPLDGEELIVE [R10N] | 0.042 ± 0.12
VKVYLPNKQRTVVTVRDGMSVYDSLDKALKVRGLNQDCCVVYRLIKGRKTGTAWDTAIAPLDGEELIVE [V51G] | -0.662 ± 0.11
VKVYLPNKQRTVVTVRDGMSVYDSLDKALKYRGLNQDCCVVYRLIKGRKTVTAWDTAIAPLDGEELIVE [V31Y] | -0.278 ± 0.15
VKVYLPNKQRTVVTVRDGMSVYDSLRKALKVRGLNQDCCVVYRLIKGRKTVTAWDTAIAPLDGEELIVE [D26R] | 0.023 ± 0.051
VKVYLPNKQRTVVTVRDGMSVYDSLDKALKVRGLNQDCCVVYRLIKGRKTVTAWDTACAPLDGEELIVE [I58C] | -0.001 ± 0.083
VKVYLPNKQRTVVTVRDGMSVYDSLDKALKVRGLNQDCCVVYRLIKGRKTQTAWDTAIAPLDGEELIVE [V51Q] | -0.032 ± 0.064
VKVYLGNKQRTVVTVRDGMSVYDSLDKALKVRGLNQDCCVVYRLIKGRKTVTAWDTAIAPLDGEELIVE [P6G] | -0.463 ± 0.28
VKVYLPNKQRTVVTVRDGMSAYDSLDKALKVRGLNQDCCVVYRLIKGRKTVTAWDTAIAPLDGEELIVE [V21A] | -0.273 ± 0.08
VKVYLPNKQRTVVTVRDGMSVYDSLDKALKVRGLNQDCCVVYRLIKGRKTVTAWDCAIAPLDGEELIVE [T56C] | -0.09 ± 0.085
VKVYLPNKQRTVVDVRDGMSVYDSLDKALKVRGLNQDCCVVYRLIKGRKTVTAWDTAIAPLDGEELIVE [T14D] | -0.205 ± 0.098

Variant | abundance fitness
VKVYLPNKQRTVVTVRDGMSVYDSLDKALKVRGLNQDCCVVYRLIKGRKTVTAWDTAIAPLDGEELIVM [E69M] | -0.682 ± 0.21
VKVYLPNKQRTQVTVRDGMSVYDSLDKALKVRGLNQDCCVVYRLIKGRKTVTAWDTAIAPLDGEELIVE [V12Q] | -0.18 ± 0.069
VKVYLPNKQRTVVTVRDGMSVYDSLDKALKVRGLNQDCCVVYRLIKGRKTVSAWDTAIAPLDGEELIVE [T52S] | -0.567 ± 0.071
VKVYLPNKQRTVVTVRDGMSVYDSLDKALKVRGLNQDCCVVYGLIKGRKTVTAWDTAIAPLDGEELIVE [R43G] | -0.907 ± 0.13
VKVWLPNKQRTVVTVRDGMSVYDSLDKALKVRGLNQDCCVVYRLIKGRKTVTAWDTAIAPLDGEELIVE [Y4W] | -0.045 ± 0.05
VKVYLPNKQRTVVTVRDGMSVYDSLDKAPKVRGLNQDCCVVYRLIKGRKTVTAWDTAIAPLDGEELIVE [L29P] | -0.958 ± 0.096
VKVYLPNKQRTVVTVRCGMSVYDSLDKALKVRGLNQDCCVVYRLIKGRKTVTAWDTAIAPLDGEELIVE [D17C] | -0.418 ± 0.1
VKVYLPNKQRTVVTVRDGMSVYDSLDKALKIRGLNQDCCVVYRLIKGRKTVTAWDTAIAPLDGEELIVE [V31I] | -0.076 ± 0.07
VKVYLPNKQRTVVTVRDGMSVYDSLDKALKVRGLNQDCCVVGRLIKGRKTVTAWDTAIAPLDGEELIVE [Y42G] | -0.824 ± 0.089
VKVYLPNKQRTVVTVRDGMSVYDSLDKALKVRGLNQDCCVVYRLIKGRKTVTAWDEAIAPLDGEELIVE [T56E] | 0.106 ± 0.037
VKVYLPNKQRTVVTVRDGMSVYDSLDKALKVRGLNQDCCVVYRLIKGRTTVTAWDTAIAPLDGEELIVE [K49T] | -0.968 ± 0.19
VKVYLPNKQRTVVTVRDGMSVYDSLDKALKVRGLNQDCCVVYRLIKGRKSVTAWDTAIAPLDGEELIVE [T50S] | -0.402 ± 0.18
VKVYLPNKQRTVVTVRDGMEVYDSLDKALKVRGLNQDCCVVYRLIKGRKTVTAWDTAIAPLDGEELIVE [S20E] | -0.913 ± 0.25
VKVYLPNKQRTVVTVRDGMSVYDSLDKALKVRGLNQDCCVVYRLIKGRKTVTAWNTAIAPLDGEELIVE [D55N] | -0.098 ± 0.06
VKVYLPNKQRTVVTVRDGMSVYDSLDKALKVRGLNQDCCVVYRLIKGAKTVTAWDTAIAPLDGEELIVE [R48A] | -0.128 ± 0.06
VKVYLPNKQRTVVTVRDGMSMYDSLDKALKVRGLNQDCCVVYRLIKGRKTVTAWDTAIAPLDGEELIVE [V21M] | -0.207 ± 0.09
VKVYLPNKQRTVVTVRDGMSVYDSLDKALKVRNLNQDCCVVYRLIKGRKTVTAWDTAIAPLDGEELIVE [G33N] | -0.473 ± 0.14
VKVYLPNKQRTVVTVRDGMSVYDSLDKALKVRGLNQDCCVVYNLIKGRKTVTAWDTAIAPLDGEELIVE [R43N] | -0.602 ± 0.43
VKVYLPNKQRTVVTVRDGMSVYDSCDKALKVRGLNQDCCVVYRLIKGRKTVTAWDTAIAPLDGEELIVE [L25C] | -0.427 ± 0.18
VKVYLPNKQRTVVTVRDGMSVYDVLDKALKVRGLNQDCCVVYRLIKGRKTVTAWDTAIAPLDGEELIVE [S24V] | 0.031 ± 0.05
VKVYLPNKQRDVVTVRDGMSVYDSLDKALKVRGLNQDCCVVYRLIKGRKTVTAWDTAIAPLDGEELIVE [T11D] | -0.233 ± 0.13
VKVYLPNKQRTVVTVRDGMSVYDSLDKALKVRGLNQDCCVVYHLIKGRKTVTAWDTAIAPLDGEELIVE [R43H] | -0.072 ± 0.42
VKVYLPNKQRTVVTVRDGMSVYDSLDKALKVRGLNQDCCVVYRLIKGRDTVTAWDTAIAPLDGEELIVE [K49D] | -0.804 ± 0.28
VKVYLPNKQRTVVTVRDGMSVYDSLDKALKVRYLNQDCCVVYRLIKGRKTVTAWDTAIAPLDGEELIVE [G33Y] | -0.894 ± 0.32
VKVYLPNKQKTVVTVRDGMSVYDSLDKALKVRGLNQDCCVVYRLIKGRKTVTAWDTAIAPLDGEELIVE [R10K] | -0.002 ± 0.058
VKVYLPNKQRTVVTVRDGMSVYDSLDKALKVRGLNQTCCVVYRLIKGRKTVTAWDTAIAPLDGEELIVE [D37T] | -0.387 ± 0.16

— the Human Domainome abundance scans (Beltran et al. 2025)
